Laboratory results from paper PMC10425842.

Assays:
[1] = target: UBR5^ΔSBB2 (UBR5 mutant with an SBB2 domain deletion) (human) (UniProt O95071); experiment: cryo-EM 2D classification
[2] = target: UBR5^ΔSBB2 (UBR5 mutant with an SBB2 domain deletion) (human) (UniProt O95071); experiment: mass photometry

**Q.** How did the stoichiometry N [1] turn out when “UBR5^ΔSBB2 (UBR5 mutant with an SBB2 domain deletion) (from UniProt O95071 1-2799) (enzyme)” was run?
**A.** 2

**Q.** What about the stoichiometry N [2] of the same substance?
**A.** 2
